Reference: patent US20250026791A1, “CYCLIC PEPTIDE CYCLIZED IN AROMATIC NUCLEOPHILIC SUBSTITUTION REACTION, AND PEPTIDE LIBRARY, PRODUCTION METHOD, AND SCREENING METHOD FOR SAME” (UNIVERSITY OF YAMANASHI, priority 2021, published 2025)
*1 amine or outer side, *2 acyl side, *3 side chain or, on linkers, in order; H or OH if unused. Where no end group is shown, it is not given here. The star is where a group is joined. Lys(Biotin) = O=C(CCCC[C@@H]1SC[C@@H]2NC(=O)N[C@@H]21)NCCCC[C@H](N[*:1])C(=O)[*:2]; F5Ph = Fc1c(F)c(F)c(*)c(F)c1F; FNO2Ph = not defined here; Ahx = NCCCCCC(=O)O

Tests used:
Format in all cases: binding
His-tagged PCSK9 = His-tagged PCSK9 (Homo sapiens, UniProt Q8NBP7); assay: His-tagged PCSK9 (HRP-conjugated anti-His-tag antibody) pulled down with peptide-immobilized streptavidin beads, chemiluminescence detection; settings: peptide on streptavidin beads pulls down His-tagged PCSK9; FIGS. 18 and 19
Procedure: Each of Peptide 1-1 and peptide 2-1 was conjugated to streptavidin beads. His-tagged PCSK9 was labeled via HRP-conjugated anti-His-tagged antibody. The complex of PCSK9 and HRP was pulled down with Peptide 1-1 or Peptide 2-1 immobilized beads. HRP substrates were added to the peptide-immobilized beads and chemiluminescence was detected using LuminoGraph III (ATTO).

PCSK9 [1] = biological target: T1, PCSK9 (Homo sapiens, UniProt Q8NBP7); assay: HRP-labeled peptide pulled down with PCSK9-immobilized beads, chemiluminescence detection; settings: without presentation by cDNA-mRNA dimer, FIGS. 16, 17, 25
Procedure: Peptide 1-1 and Peptide 2-1 were labeled via horseradish peroxidase (HRP)-labeled streptavidin. Each peptide of HRP-labeled Peptide 1-1 and Peptide 2-1 was pulled down with PCSK9-immobilized beads. HRP substrate was added to PCSK9-immobilized beads and chemiluminescence was detected using LuminoGraph III (ATTO).
The PCSK9 binding activity of HRP-labeled Peptide 1-1 (monomer) and the dimer of Peptide 1-1 (Peptide A) were analyzed by PCSK9 pull-down and chemiluminescence detection.
Peptide C was labeled via HRP-labeled streptavidin. Based on the same method as in Experimental Example 7, the PCSK9 binding activity of HRP-labeled Peptide C was analyzed by PCSK9 pulldown and chemiluminescence detection.

PCSK9 [2] = biological target: T1, PCSK9; assay: Collection rate of cDNA/mRNA presenting cyclized peptide against PCSK9-immobilized beads; settings: for collection rate against PCSK9, Peptide 2 (WT) versus Peptide 3 (C17S): FIG. 13, C17 replaced with serine
Procedure: Site-specific biotinylated human PCSK9 was immobilized on streptavidin-modified magnetic beads. Fc fusion protein of human PCSK9 was immobilized on protein A-modified magnetic beads. Immobilization of PCSK9 was confirmed by sodium dodecyl sulfate polyacrylamide gel electrophoresis and staining with Coomassie brilliant blue.
Each of the mRNA-presenting FNO2Ph and F5Ph cyclized peptide libraries was incubated with PCSK9-immobilized streptavidin-modified beads as positive selection. After removal of the supernatant, the beads were washed with HBS-T. cDNA encoding the peptide binding to the PCSK9-immobilized beads was PCR amplified with Taq DNA polymerase. The amplified PCR product was used for the next round of SELEX.
After the positive selection, cDNA encoding peptides that bind to PCSK9 immobilized beads was amplified by PCR and quantified by qPCR using SYBR green.
Each collection rate of the cDNA/mRNA presenting FNO2Ph cyclized peptide with the amino acid sequence of SEQ ID: 4 (hereafter referred to as Peptide 1) and the cDNA/mRNA presenting F5Ph cyclized peptide with the amino acid sequence of SEQ ID: 14 (hereafter referred to as Peptide 2) against PCSK9 was determined. […] beads were used as negative controls.
Peptide 3 (SEQ ID: 27) was prepared by replacing C17 in Peptide 2 (F5Ph is the first amino acid) with serine. Each collection rate of Peptide 2 (WT) and Peptide 3 (C17S) against PCSK9 was measured (FIG. 13).

human IL-5 = assay: Collection rate of cDNA/mRNA presenting cyclized peptide against IL-5; settings: compared with IL-5 non-immobilized beads (FIGS. 29 and 30)
Procedure: We checked whether the screening in Experimental Example 2 is applicable to compounds other than human PCSK9. Screening was performed for peptides that bind to human IL-5 as compounds other than human PCSK9.
Each collection rate of cDNA/mRNA presenting FNO2Ph cyclized peptide with the amino acid sequence of SEQ ID: 66 (hereafter referred to as Peptide 4) and cDNA/mRNA presenting F5Ph cyclized peptide with the amino acid sequence of SEQ ID: 69 (hereafter referred to as Peptide 5) against IL-5 was determined. IL-5 non-immobilized beads were used as a negative control. […] From the above, it was possible to screen for human IL-5 which is a compound other than human PCSK9.

T1 sequence (Q8NBP7 153-692): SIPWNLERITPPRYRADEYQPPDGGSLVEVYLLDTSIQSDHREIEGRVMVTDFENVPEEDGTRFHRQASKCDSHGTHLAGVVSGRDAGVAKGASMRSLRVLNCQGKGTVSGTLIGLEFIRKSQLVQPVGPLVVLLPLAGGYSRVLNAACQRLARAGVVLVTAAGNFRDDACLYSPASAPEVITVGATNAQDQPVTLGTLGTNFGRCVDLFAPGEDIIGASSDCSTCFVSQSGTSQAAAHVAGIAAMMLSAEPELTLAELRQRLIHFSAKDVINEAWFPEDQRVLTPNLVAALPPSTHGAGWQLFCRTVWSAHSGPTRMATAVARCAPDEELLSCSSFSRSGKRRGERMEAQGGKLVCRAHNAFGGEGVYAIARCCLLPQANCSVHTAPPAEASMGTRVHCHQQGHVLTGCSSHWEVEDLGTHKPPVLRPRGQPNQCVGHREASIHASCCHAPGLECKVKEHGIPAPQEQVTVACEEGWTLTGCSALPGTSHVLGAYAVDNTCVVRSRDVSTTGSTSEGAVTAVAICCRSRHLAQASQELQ
Chain of human IL-5 (P05113 20-134): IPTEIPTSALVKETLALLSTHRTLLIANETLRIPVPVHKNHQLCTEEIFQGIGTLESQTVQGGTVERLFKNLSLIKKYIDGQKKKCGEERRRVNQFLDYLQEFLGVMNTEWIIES
Chain of His-tagged PCSK9 (Q8NBP7 153-692): as the sequence (Q8NBP7 153-692) above

Row | Substance | PCSK9 binding activity (PCSK9 [1]) | collection rate against PCSK9, Peptide 2 (WT) versus Peptide 3 (C17S) (PCSK9 [2]) | collection rate against IL-5 (human IL-5) | other results
1 | Peptide 2-1: chemically synthesized FNO2Ph cyclized peptide (as printed), SEQ ID: 14, C-terminal spacer of three Ahx and biotinylated lysine (RGHCWLYVYFPVRSLC-{Ahx-Ahx-Ahx-K(biotin)-NH2}; thioether (positions not given here); not fully specified (N-terminus, bridges); also: FNO2Ph cyclization, places not given here) | have binding activity to PCSK9 | – | – | PCSK9 binding activity (His-tagged PCSK9): have binding activity to PCSK9
2 | Peptide 2: F5Ph cyclized peptide with amino acid sequence of SEQ ID: 14 (RGHCWLYVYFPVRSLC), cDNA/mRNA presented (F5Ph-RGHCWLYVYFPVRSLC; thioether (positions not given here); not fully specified (bridges)) | – | C17 in Peptide 2 was found to be critical for Peptide 2 binding to PCSK9 | – | collection rate against PCSK9 (PCSK9 [2]; cDNA/mRNA presenting peptide, compared with negative control beads (FIGS. 10 and 11)): higher than that of the negative control
3 | Peptide 3: SEQ ID: 27; C17 in Peptide 2 (F5Ph is the first amino acid) replaced with serine (F5Ph-RGHCWLYVYFPVRSLS; thioether (positions not given here); not fully specified (bridges)) | – | C17 in Peptide 2 was found to be critical for Peptide 2 binding to PCSK9 | – | –
4 | Peptide 4: FNO2Ph cyclized peptide with amino acid sequence of SEQ ID: 66 (LLLMWCAVLVVLRWRRR), cDNA/mRNA presented (bridge (positions not given here) via FNO2Ph; reading uncertain; also: FNO2Ph cyclization, places not given here) | – | – | higher than those of the negative control | –
5 | Peptide 5: F5Ph cyclized peptide with amino acid sequence of SEQ ID: 69 (HSPFTFQHC), cDNA/mRNA presented (bridge (positions not given here) via F5Ph; also: F5Ph cyclization, places not given here) | – | – | higher than those of the negative control | –
6 | Peptide C: FNO2Ph cyclized peptide, SEQ ID: 35: two methionines of SEQ ID: 28 replaced with isoleucine; three Ahx spacer, biotinylated lysine (RWRFYSGIRNREIDC-{Ahx-Ahx-Ahx-Lys(Biotin)-NH2}; not fully specified (N-terminus, bridges); also: FNO2Ph cyclization, places not given here) | have binding activity for PCSK9 | – | – | –
